Test results from patent US20220024992A1, “COMPOSITIONS AND METHODS COMPRISING LYSOCINS AS BIOENGINEERED ANTIMICROBIALS FOR USE IN TARGETING GRAM-NEGATIVE BACTERIA” (The Rockefeller University, priority 2018, published 2022).
In brackets after ≈: the same amount, converted by molar mass. Read-outs that look alike come from different tables or passages of the source.

Experiments:
[1] = test system: pseudomonal PG (autoclaved P. aeruginosa); assay: Muralytic plate lysis assay on autoclaved Pseudomonas; assay type: biochemical; details: 25 pmol spotted
P. aeruginosa strains [2] = assay: MIC and MBC, modified CLSI broth microdilution, CAA medium; assay type: cell-based; details: strain 453, FpvA type I
Protocol: The MIC and MBC values were calculated using a modified version of the broth microdilution assay as previously described by the Clinical and Laboratory Standards Institute (CLSI) (45). The specific modifications were to the bacterial concentration and growth medium used. […] CAA medium was used for Gram-negative bacteria to simulate low iron conditions. Alternatively, MHB was used for Gram-positive bacteria due to their inability to grow in CAA medium. Bacterial growth was assessed by measuring the OD600 nm using a SpectraMax M5 microplate reader (Molecular Devices). The MIC was defined as the lowest antimicrobial concentration that inhibits bacterial growth. To determine the MBC, the contents from each well originating from the MIC microtiter plate was plated on CAA agar to quantitate bacterial viability. The MBC was defined as the lowest antimicrobial concentration required to kill ≥99.9% of the initial bacterial inoculum. Growth and sterility controls were included.

[3] = biological target: FpvAII receptor (Pseudomonas aeruginosa); assay: cell-based or functional assay
[4] = biological target: FpvAIII receptor (Pseudomonas aeruginosa); assay: cell-based or functional assay
[5] = biological target: ferripyoverdine A type I (FpvAI) receptor (Pseudomonas aeruginosa) (UniProt P48632); assay: cell-based or functional assay
P. aeruginosa strain 453 = assay: Cell viability assays with 0.5 μM antimicrobial
Protocol: P. aeruginosa strain 453 were grown under iron-depleted conditions (see Bacterial Strains and Growth Conditions). The bacteria were harvested, washed and resuspended in fresh CAA medium with 0.5 mg/ml EDDHA. Using a 96-well flat-bottomed microtiter plate, the bacteria at ˜10^6 CFU/ml were incubated statically at 37° C. with either growth medium only (untreated control) or 0.5 μM purified antimicrobial. A 2 h incubation was used for the single time point experiments, whereas a 4 or 6 h incubation was used for the multiple time point assays. At various time points, an aliquot was removed from each sample, serially diluted and plated on CAA agar. After incubating the agar plates for up to 48 h at 37° C., colonies were counted in order to quantitate the CFU/ml concentration of surviving bacterial cells. Modifications were introduced to the aforementioned cell viability assay protocol for the experiment using P. aeruginosa grown in the presence of varying free iron concentrations. First, P. aeruginosa strain 453 were grown using iron-depleted or iron-rich conditions (CAA medium supplemented with 100 μM FeSO4) at 37° C. with aeration for a total of 16-18 h and subsequently assayed for lysocin sensitivity in PBS, pH 7.4. For the experiment analyzing lysocin activity in the presence of lung surfactant or serum, P. aeruginosa were incubated with or without lysocin in beractant ([sequence]; Abbvie) or HuS diluted 1:1 with 20 mM sodium phosphate, pH 7.0.

P. aeruginosa strains [6] = assay: MIC, CLSI broth microdilution in CAA medium with EDDHA
Protocol: The FpvA receptor type for all P. aeruginosa strains used was determined using multiplex PCR, as previously described (67). […] CAA medium consisting of 0.5 mg/ml EDDHA was used instead of MHB. All P. aeruginosa strains were initially inoculated in CAA medium and grown overnight at 37° C. with aeration. The bacteria were then pelleted, washed and resuspended in CAA medium with EDDHA. Using a 96-well U-bottom microtiter plate, P. aeruginosa at a final concentration of 5×10^5 CFU/ml were incubated statically at 37° C. with 0.002-256 μg/ml lysocin in CAA medium with EDDHA for a total of 48 h. Growth (bacteria incubated in growth medium absent lysocin) and sterility controls (growth medium only) were included for each dataset. At the culmination of the experiment, each plate was visually inspected for bacterial growth. All samples were assayed in triplicate. The MIC was defined as the lowest concentration of lysocin that inhibited observable bacterial growth.

[7] = Pseudomonas aeruginosa, read-out: MBC
[8] = Pseudomonas aeruginosa, read-out: MIC

| Molecule | MIC, P. aeruginosa strain 445 (FpvAII) [3] [µg/mL] | MIC, P. aeruginosa strain 448 (FpvAII) [3] [µg/mL] | MIC, P. aeruginosa strain 451 (FpvAII) [3] [µg/mL] | MIC, P. aeruginosa strain AR468 (FpvAII) [3] [µg/mL] | MIC, P. aeruginosa strain 443 (FpvAIII) [4] [µg/mL] | MIC, P. aeruginosa strain 450 (FpvAIII) [4] [µg/mL] | MIC, P. aeruginosa strain AR471 (FpvAIII) [4] [µg/mL] | MIC, P. aeruginosa strain 447 (FpvAI) [5] [µg/mL] | MIC, P. aeruginosa strain 453 (FpvAI) [5] [µg/mL] | MIC, P. aeruginosa strain AR465 (FpvAI) [5] [µg/mL] | MIC, P. aeruginosa strain AR469 (FpvAI) [5] [µg/mL] | MIC, P. aeruginosa strain AR470 (FpvAI) [5] [µg/mL] | MIC, P. aeruginosa strain AR474 (FpvAI) [5] [µg/mL] | MIC, P. aeruginosa strain PAO1 (FpvAI) [5] [µg/mL] | further results |
| --- | --- | --- | --- | --- | --- | --- | --- | --- | --- | --- | --- | --- | --- | --- | --- |
| CEWL: Chicken egg white lysozyme, positive control for muralytic activity [reference compound] |  |  |  |  |  |  |  |  |  |  |  |  |  |  | muralytic activity (clearing zones) on autoclaved P. aeruginosa [1]: Clearing zones |
| C[C@@H](O)[C@H]1C(=O)N2C(C(=O)O)=C(S[C@@H]3CN[C@H](C(=O)N(C)C)C3)[C@H](C)[C@H]12 [Meropenem, meropenem, reference compound] |  |  |  |  |  |  |  |  |  |  |  |  |  |  | MBC (P. aeruginosa strains [2]; [7]): 8 µg/mL (≈ 20.9 µM); MIC (P. aeruginosa strains [2]; [8]): 8 µg/mL (≈ 20.9 µM) |
| NC[C@H]1O[C@H](O[C@H]2[C@H](O)[C@@H](O[C@H]3O[C@H](CO)[C@@H](O)[C@H](N)[C@H]3O)[C@H](N)C[C@@H]2N)[C@H](N)C[C@@H]1O [Tobramycin, tobramycin, reference compound] |  |  |  |  |  |  |  |  |  |  |  |  |  |  | MBC (P. aeruginosa strains [2]; [7]): 0.25 µg/mL (≈ 0.535 µM); MIC (P. aeruginosa strains [2]; [8]): 0.125 µg/mL (≈ 0.267 µM) |
| PyS2-I-PlyPa03 lysocin | > 256 | > 256 | > 256 | > 256 | > 256 | > 256 | > 256 | 4 | 0.25 | 2 | 4 | 8 | 4 | 4 |  |
| PyS2-I-GN4 lysocin | > 256 | > 256 | > 256 | > 256 | > 256 | > 256 | > 256 | 4 | 0.25 | 4 | 8 | 8 | 4 | 4 |  |
| PyS2-I-PlyPa03: PyS2 aa 1-209, GSx3 linker, P. aeruginosa lysin PlyPa03 (aa 2-144) |  |  |  |  |  |  |  |  |  |  |  |  |  |  | muralytic activity (clearing zones) on autoclaved P. aeruginosa [1]: degraded pseudomonal PG; decrease in viability of Pseudomonas (P. aeruginosa strain 453; 1 h, iron-chelated CAA medium): 3.6 log10; killing of Pseudomonas (P. aeruginosa strain 453; 2 h, 50% HuS): 4.5 log10; killing of P. aeruginosa (P. aeruginosa strain 453; 2 h, 50% beractant (SURVANTA)): 3.6 log10; killing of P. aeruginosa (P. aeruginosa strain 453; 4 h, iron-chelated CAA medium): 6.2 log10; activity towards strains (P. aeruginosa strains [6]; P. aeruginosa strains expressing FpvAII and FpvAIII): ineffective; MIC (P. aeruginosa strains [6]; strain 443, FpvAIII): >256 µg/mL; MIC (P. aeruginosa strains [6]; strain 445, FpvAII): >256 µg/mL; MIC (P. aeruginosa strains [6]; strain 447, FpvAI): 4 µg/mL; MIC (P. aeruginosa strains [6]; strain 448, FpvAII): >256 µg/mL; MIC (P. aeruginosa strains [6]; strain 450, FpvAIII): >256 µg/mL; MIC (P. aeruginosa strains [6]; strain 451, FpvAII): >256 µg/mL; MIC (P. aeruginosa strains [6]; strain 453, FpvAI): 0.25 µg/mL; MIC (P. aeruginosa strains [6]; strain AR465, FpvAI): 2 µg/mL; MIC (P. aeruginosa strains [6]; strain AR468, FpvAII): >256 µg/mL; MIC (P. aeruginosa strains [6]; strain AR469, FpvAI): 4 µg/mL; MIC (P. aeruginosa strains [6]; strain AR470, FpvAI): 8 µg/mL; MIC (P. aeruginosa strains [6]; strain AR471, FpvAIII): >256 µg/mL; MIC (P. aeruginosa strains [6]; strain AR474, FpvAI): 4 µg/mL; MIC (P. aeruginosa strains [6]; strain PAO1, FpvAI): 4 µg/mL |
| colistin [reference compound] |  |  |  |  |  |  |  |  |  |  |  |  |  |  | MBC (P. aeruginosa strains [2]): 0.5 µg/mL; MIC (P. aeruginosa strains [2]): 0.5 µg/mL |
| PyS2-GN4 lysocin |  |  |  |  |  |  |  |  |  |  |  |  |  |  | MIC, P. aeruginosa strain 445 (FpvA type II) [3]: > 256 µg/mL; MIC, P. aeruginosa strain 446 (FpvA type II) [3]: > 256 µg/mL; MIC, P. aeruginosa strain 448 (FpvA type II) [3]: > 256 µg/mL; MIC, P. aeruginosa strain 449 (FpvA type II) [3]: > 256 µg/mL; MIC, P. aeruginosa strain 451 (FpvA type II) [3]: > 256 µg/mL; MIC, P. aeruginosa strain 443 (FpvA type III) [4]: > 256 µg/mL; MIC, P. aeruginosa strain 450 (FpvA type III) [4]: > 256 µg/mL; MBC, P. aeruginosa strain 453 (FpvA type I) [5]: 0.25 µg/mL; MIC, P. aeruginosa strain 452 (FpvA type I) [5]: 4 µg/mL; MIC, P. aeruginosa strain 453 (FpvA type I) [5]: 0.25 µg/mL; MIC, P. aeruginosa strain MDR-M-3 (FpvA type I) [5]: 2 µg/mL; MIC, P. aeruginosa strain PAO1 (FpvA type I) [5]: 2 µg/mL |
| PyS2-I-GN3 lysocin | > 256 | > 256 | > 256 | > 256 | > 256 | > 256 | > 256 | 8 | 4 | 4 | 8 | 4 | 4 | 8 |  |
